Experimental data published in patent publication US5889173A, “DNA encoding multifunctional neurothrophic factors” (priority 1996, dated 1999).

Key:
TrkA [1] = experiment: Competitive TrkA receptor binding: displacement of 125I-NGF from rtrkA-3T3 cells; conditions: 125I-NGF displacement, relative binding from IC50 versus wt NGF
Method: NIH3T3 fibroblasts expressing TrkA, TrkB or TrkC were used at 2 to 1-33 10^6 cells/ml. […] All components were added at the same time and the cells were collected by centrifugation after equilibrium was reached (90-120 minutes incubation). Cell pellets were then counted in a gamma counter. […] Nonspecific binding was measured in a parallel incubation to which 300 to 1000-fold molar excess of unlabelled purified factor was added.

[2] = system: E8 chick sympathetic ganglia; experiment: Neurite outgrowth from explanted E8 chick sympathetic ganglia; type: cell-based; conditions: for Biological Activity % of wild type (neurite outgrowth, sympathetic ganglia): explants of embryonic sympathetic ganglia, relative to wt NGF
Method: Fibre outgrowth was scored on a semiquantitative scale in biological units (BU) by comparison to standards obtained with purified mouse NGF, for which 1 BU is equivalent to approximately 5ng/ml. The concentration of each protein that gave 0.6 BU in this scale was determined, and used to calculate the relative activity compared to that obtained with wt NGF.

[3] = system: dissociated E8 chick nodose neurons; experiment: Survival of dissociated E8 chick nodose ganglion neurons; type: cell-based; conditions: for Nodose neurons rescued (survival): saturating concentrations (20-50 ng/ml)
Method: (§1) Dissociated neurons from chick E8 sympathetic and nodose ganglia were preplated on plastic for 2 hr and then cultured in 96 well-plates coated with poly-L-ornithine and laminin at a density of 800-1000 cells/well. Serial dilutions of conditioned media containing equivalent amounts of recombinant proteins were added at the time of plating and neuronal survival was determined after 36-48 hr by phase contrast microscopy, scoring the number of surviving neurons in the entire well.

[4] = system: dissociated E8 chick sympathetic neurons; experiment: Survival of dissociated E8 chick sympathetic neurons; type: cell-based; conditions: 2 ng/ml
Method: as §1

TrkB and TrkA = conditions: literature; cited from earlier work
TrkB [5] = experiment: Competitive TrkB receptor binding: displacement of 125I-BDNF from rtrkB-3T3 cells; conditions: for Receptor Binding % of wild type (TrkB): rtrkB-3T3 cells, 125I-BDNF displacement, relative binding from IC50 versus wt BDNF
Method: Purified mouse NGF and BDNF were labeled with ^125 I by the lactoperoxidase method to an average specific activity of 1×10^8cpm/μg. For the labeling of BDNF, the modifications described by Rodriguez-Tebar et al. ([Rodriguez-Tebar, 1992]) were used. NIH3T3 fibroblasts expressing TrkA, TrkB or TrkC were used at 2 to 1-33 10^6 cells/ml. Steady state binding was measured in competition assays performed at 4° C. using 1.5×10^-9 M ^125 I-BDNF and serial dilutions of conditioned media containing equivalent amounts of wt or mutated NGF protein. All components were added at the same time and the cells were collected by centrifugation after equilibrium was reached (90-120 minutes incubation). Cell pellets were then counted in a gamma counter. […] Nonspecific binding was measured in a parallel incubation to which 300 to 1000-fold molar excess of unlabelled purified factor was added. All results were corrected for this nonspecific binding, which was less than 10% (for NGF) or 30% (for BDNF) of total binding. The concentration of each chimeric, mutant and wild type molecule that gave 50% binding (IC50) was determined, and relative binding was calculated using the relationship:(mutant IC50 /wild type IC50)×100.

TrkB [6] = experiment: Tyrosine phosphorylation of TrkB receptors in rtrkB-3T3 cells; type: cell-based
Method: (§2) Plates were incubated 15 minutes at 4° C. after which insoluble material was removed by centrifugation. Cell lysates were normalized for protein content before immunoprecipitation. […] After 2 hr at 4° C., immunocomplexes were collected with Protein A-Sepharose (Pharmacia, Sweden), washed in lysis buffer and boiled for 5 minutes before SDS/PAGE. After electrophoresis, gels were blotted to nitrocellulose membranes, reacted with anti-phosphotyrosine monoclonal antibody 4G10 (UBI, New York) and developed with the ECL Western Detection System (Amersham, UK). Appropriately exposed autoradiograms of phosphotyrosine blots were used for densitometric scanning.

TrkA [7] = experiment: Tyrosine phosphorylation of TrkA receptors in rtrkA-3T3 cells; type: cell-based; conditions: 100 ng/ml
Method: as §2

TrkC = experiment: Tyrosine phosphorylation of TrkC receptors in Trk-expressing cells; type: cell-based; conditions: 100 ng/ml
Method: A confluent 10 cm plate containing about 10^7 rtrk-3T3 or rtrkB-3T3 cells was treated for 5 minutes at 37° C. with wt, chimeric or mutant factors and subsequently lysed with 1 ml of ice-cold buffer containing 1% NP40, 20 mM Tris pH 8.0, 137 mM NaCl, 2 mM EDTA, 10% glycerol, 1 mM PMSF, 0.15 U/ml aprotinin, 20 μM leupeptine and 1 mM Na orthovanadate. Plates were incubated 15 minutes at 4° C. after which insoluble material was removed by centrifugation. Cell lysates were normalized for protein content before immunoprecipitation. Trk immunoprecipitation was performed by incubating lysates with 1 μl of anti-TrkB polyclonal antiserum 443 ([Soppet, 1991]) which recognizes TrkA, TrkB and TrkC. After 2 hr at 4° C., immunocomplexes were collected with Protein A-Sepharose (Pharmacia, Sweden), washed in lysis buffer and boiled for 5 minutes before SDS/PAGE. After electrophoresis, gels were blotted to nitrocellulose membranes, reacted with anti-phosphotyrosine monoclonal antibody 4G10 (UBI, New York) and developed with the ECL Western Detection System (Amersham, UK). Appropriately exposed autoradiograms of phosphotyrosine blots were used for densitometric scanning.

Question: With “wild-type NT-3: recombinant wild-type rat neurotrophin-3 (SEQ ID NO. 3) produced in COS cells [reference compound]” as the molecule, how does the “Receptor Binding % of wild type (TrkA)” value (TrkA [1]) read?
Answer: about 3 % of wild type

Question: What about the “Biological activity, neurite outgrowth from sympathetic ganglia (in words)” value [2] of the same molecule?
Answer: only a marginal effect

Question: And the “Nodose neurons rescued (survival)” value [3]?
Answer: 25%

Question: What about the “Survival of dissociated sympathetic neurons (in words)” value [4] of the same molecule?
Answer: no survival

Question: And the “Efficiency to mediate biological effects through TrkB and TrkA lower than BDNF or NGF” value (TrkB and TrkA)?
Answer: about 100 fold

B1: wt BDNF: recombinant wild-type brain-derived neurotrophic factor (SEQ ID NO. 2) produced in COS cells (protein)
chain: HSDPARRGELSVCDSISEWVTAADKKTAVDMSGGTVTVLEKVPVSKGQLKQYFYETKCNPMGYTKEGCRGIDKRHWSNQCRTTQSYVRALTMDSKKRIGWRFIRIDTSCVCTLTIKRGR
Question: For B1, which “Receptor Binding % of wild type (TrkA)” value (TrkA [1]) is on record?
Answer: < 0,2 % of wild type

Question: And the “Biological Activity % of wild type (neurite outgrowth, sympathetic ganglia)” value [2]?
Answer: < 0,2 % of wild type

Question: And the “Receptor Binding % of wild type (TrkB)” value (TrkB [5])?
Answer: 100 % of wild type

Question: What about the “EC50 of TrkB receptor phosphorylation” value (TrkB [6]; dose-response, densitometric scanning of phosphotyrosine blots, rtrkB-3T3 cells) of the same molecule?
Answer: 5 ng/mL

Question: What about the “Nodose neurons rescued (survival)” value [3] of the same molecule?
Answer: 40%

B2: wt NGF: recombinant wild-type rat nerve growth factor (SEQ ID NO. 1) produced in COS cells (protein)
chain: SSTHPVFHMGEFSVCDSVSVWVGDKTTATDIKGKEVTVLGEVNINNSVFKQYFFETKCRAPNPVESGCRGIDSKHWSNYCTTTHTFVKALTTDDKQAAWRFIRIDTACVCVLSRKAARRG
Question: For B2, which “Receptor Binding % of wild type (TrkA)” value (TrkA [1]) is on record?
Answer: 100 % of wild type

Question: What about the “Biological Activity % of wild type (neurite outgrowth, sympathetic ganglia)” value [2] of the same molecule?
Answer: 100 % of wild type

Question: And the “Receptor Binding % of wild type (TrkB)” value (TrkB [5])?
Answer: < 0,2 % of wild type

Question: And the “Survival of nodose neurons (in words)” value [3]?
Answer: failed to rescue neurons

B3: PNT-1: NT-3 with variable region V replaced from BDNF and amino terminus (residues 3-9) replaced from NGF (protein)
chain: SSTHPVFHMGEFSVCDSVSVWVGDKTTATDIKGKEVTVLGEVNINNSVFKQYFFETKCRAPNPVESGCRGIDSKHWSNYCTTTHTFVKALTTDDKQAAWRFIRIDTACVCVLSRKAARRG
Question: With B3 as the molecule, how does the “Receptor Binding % of wild type (TrkA)” value (TrkA [1]) read?
Answer: ~50 % of wild type

Question: What about the “TrkA tyrosine phosphorylation / activation (in words)” value (TrkA [7]) of the same molecule?
Answer: efficient tyrosine phosphorylation

Question: What about the “Biological activity, neurite outgrowth from sympathetic ganglia (in words)” value [2] of the same molecule?
Answer: efficiently stimulated neurite outgrowth

Question: And the “Potency in neurite outgrowth from sympathetic ganglia lower than wild type NGF” value ([2]; dose-response curves)?
Answer: 15 fold

Question: And the “TrkB receptor binding (in words)” value (TrkB [5])?
Answer: not changed

Question: And the “TrkB tyrosine phosphorylation / activation (in words)” value (TrkB [6]; 100 ng/ml)?
Answer: efficient tyrosine phosphorylation

Question: What about the “Increase of nodose neuron survival compared to NT-3” value ([3]; saturating concentrations) of the same molecule?
Answer: ~2 fold

Question: What about the “Nodose neurons rescued (survival)” value [3] of the same molecule?
Answer: 45%

Question: What about the “TrkC tyrosine phosphorylation (in words)” value (TrkC) of the same molecule?
Answer: efficient tyrosine phosphorylation

Question: What about the “Survival of dissociated sympathetic neurons (in words)” value [4] of the same molecule?
Answer: correlated with survival of dissociated sympathetic neurons
